Experiment: soluble fraction after stress (log2 fold change); higher = more stays soluble; pooled small domains, quantitative proteomics
Settings: stress: 75 degC
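Note: 20 min heating vs room temperature control held 20 min.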

| Sequence | soluble fraction (log2) |
| --- | --- |
| HMSDPFSPTTTLKNRAKSVLSVDSFEDFKLFIKKMWQEKKEGVYQNPNVETWKDWDNISVKDAKILISLI | -1.45 |
| HMYEDGGAFLKAEREKYGLTLTDIYEHTHIPVRKLKAYEMHEEEMPDRTRALLELYFDQVAYEYES | -0.734 |
| HMAVEETFTITWLDRDGTVLEVDENVLKGTMPSFDGHIPPHDGLEFKGWDPEVVPVEGDATYTATYKA | 0.508 |
| HMTIGKRIKRRRIELKMSIDSLARTIGKDRSTVYRYESGAIDKVSSDVLAKLATALNTTPAYLIGL | -4.61 |
| HMGEPVNSPMPGTILRVEVTQGAAVKEGQLLVVLEAMKMENEILAPKDGTVAQVVVQKGSHVETGSPLIVL | -0.508 |
| HMEPKIKQIVPNVVNYPVEDAKNVLVNSGLIVQIRGQGNIVYDQVPKGGAEVTRGTTVILDLNPPPGA | -0.0576 |
| HMSKNIRQQFLDVLPKTFDRNQYLETAKKLSINAKTAEGYIKKFVEANLLDHPKHNHYINLKKVEEVETK | -0.0919 |
| HMEFPLSPHQYSVLRLMAQGLSNKQIAERLFLSENTVKGYVQEVLRRLGARNRLEAVMIANRRGWL | -0.316 |
| HMKGTSIELIVPQDIAGLRLDQVLAKLLPQWSRSRLQSWINEKHITVNGQTTTAKQKLWGNETIQIIPPI | -1.45 |
| HMTVPMKILILEDEQRNAMRLIRLLNDIDTTFIIEGPLTNIKEAVDFFQSGKTTDLILADIRL | -0.254 |
| HMQARSQQTIQTLFKAAAQILDKEGEAGLSTNKVAAAAGFSIGTLYQYFPSKEVLIQAMAAR | 0.219 |
| HMEELPVLHLKHVVVEGESLWKLAEQYLNDGTRWQEIYMLNRENISNPDLIREGQELNIQFLQGE | -0.382 |
| HMNHHEIIMKNIDTLLKEKNISISKLEKSLGISNGYISRLRNGKYNFSLDLLLKLAKKFKISIDYLLTDFD | -0.317 |
| HMIVDARNREINLGSHVRYVDTGTVGEVTDSKVENDASWVKIDKTNLWYLANKLELLNDEDFKT | 0.0789 |
| HMKGQLVVFPNPASSNDMVRFNKNISFSIFDITGHLVDTKRNVNELSVGNLEAGTYILRTEQGDVLRMVI | -1.45 |
| HMDNEIIEEEKITTLMITHNMRDAIKYGNRLIMLNEGRVIFDISGEEKKNLTVQELLEKFEK | 0.242 |
| HMIGIEALAGEIDRVRQVLTGGGGLSDVQLFSQLKALNEIKAALGASPDPRAPELVQRVDQLLEAAFRS | 0.395 |
| HMGTPEQVVVSSVLKETNEIVLKWPADGFMAKYKMDNLNLNFEPVHGQGVMGYFIGSRLIKLELV | -1.43 |
| HMGETWYEILEISSDATTEEIRQAYFEQARQYHPDTNPGELAREWFYQVQEAYETLSDPDRRRQYDESIKG | -0.0285 |
| HMDRFVLQLSKRYYDSSIEGVRKALAAFPVKTELLDQDRGGRPFYHENGKENEPVFRIMFHPEEGM | -0.421 |

| Sequence | soluble fraction (log2) |
| --- | --- |
| HMKNVEEMILGKLKRKVSENLENASFEEIILVDAEKSVYKGIIKANYIEYYFRVNLSTGEVLSWKLK | -0.86 |
| HMSTSFQVQVSVLDLRIRKEPTVKGQEVGKISKGIHTITETRSADGYTWGKLESGQGWIALEFTTKLD | -3.72 |
| HMAGTRRFELVEGSSSKFWEVTVADGSYTVTYGRIGTAGGSKTTESATAEADAEKLVREKLKKGYQEAGAA | 0.102 |
| HMSNRIDKIKLNHWLNIRKTSLDVLNNLLSKHLNHKINFENLENLDEQAIEKISEVLSIPKNKLLINDDVP | -0.219 |
| HMGELYGTDQYKDGDAQDTNIGKLLEVNIDGKWQVATTGTSRFEFAGVMDDNGHKLIMISVLPEAKTV | 0.0596 |
| HMPQFDRQAFGQRLRLLRDYREMTQQQVANFLNVDRSTYSYYENGKTEPSITVLMRMAELFSVTLDSLLNM | -3.92 |
| HMTVTMADISQAYNEKRYLTTISLSNTYLTFAKPTTELLSIRYRTYFIIGKYAESLTEIAKL | 0.294 |
| HMQDPRITRTRGLILQAFDALLVEKGFHALSVQAIAGRAGINRATFYAHFADKYALLDTSIQE | 0.227 |
| HMVSVEELLSSLDPNEATVLKLLAERSSGVDELMERSGLDFSALSEAITNLELFGYIAREMDGVYSFS | -1.05 |
| HMALHLPTTTINGRQYYYFKSKEKITVYGLSKRLGLTRQEIVEHNPSAVDGIKRGSTLYFPVDEFAD | -2.12 |
| HMIAAPFVVKDIRVDGVQPATGEAIISSLPVKVGQTATDADVSNVVRQLFSLNRFQNVQATREGNTLVIKV | -0.0493 |
| HMDAYDEVTTLSQMVASGKNTTVAHLKHLKEYHQTDYLRQAVEWLLSNRKNVSFSVDEVMQEVHN | -0.0471 |
| HMWPQIAGFADRFGLSDTERRIVTLMSHGRSRKIIASTLGYSQNTIRNYTRNIYAKAGVHSKQELLDLLDP | -1.96 |
| HMSSPRAIYSAIQKAVGEDMILYREDVQIILDKLDADLLVDDILEKMELDGTLVRQRDGTWLLL | -0.801 |
| HMVLVGERRQKILEVVSSGKAVTVEELSRILHVSPSTVRRDLRFLESRGLLYRTHGGAMPPV | -1.95 |
| HMTESIKRDEAIRLNNGRIYTLDAAKIGTNEYEVMLFNPRTGEEIDSAKTSTEADAILQFDRLRRMYHR | 0.0129 |
| HMKKAIYPGSFDPLTLGHIDIIKRASGIVDELVVGVLNNSAKNSLFSLDERVSMIEEMTKDLPNVSVTSFD | 0.16 |
| HMGGPEPIPAQIREGDTVYVTKFKQLGLVLKISEDTAEVQIGPLRATVAKTELSKVDATATEHR | -0.0822 |
| HMTASKSTVSTPEKVVYHIVFPKETKYSIAKKYGITIEELEKRNPEIIPSLSVGQKLVIKGTAPK | -0.236 |

— the domain aggregation screens of Martell et al. (2025)
